Target: recombinant full-length thrombospondin-1 (human) (UniProt P07996)
Experiment: SPR; BIAcore 3000; TSP-1 bound covalently to CM5 chips at 0.1 uM; complement proteins as analytes at 12.3, 37.03, 111.1, 333.3, 1,000 nM in PBS plus 0.05% Tween 20; 1:1 Langmuir binding model; average of 3 repeated measurements

Chain of recombinant full-length thrombospondin-1 (human) (P07996 19-1170): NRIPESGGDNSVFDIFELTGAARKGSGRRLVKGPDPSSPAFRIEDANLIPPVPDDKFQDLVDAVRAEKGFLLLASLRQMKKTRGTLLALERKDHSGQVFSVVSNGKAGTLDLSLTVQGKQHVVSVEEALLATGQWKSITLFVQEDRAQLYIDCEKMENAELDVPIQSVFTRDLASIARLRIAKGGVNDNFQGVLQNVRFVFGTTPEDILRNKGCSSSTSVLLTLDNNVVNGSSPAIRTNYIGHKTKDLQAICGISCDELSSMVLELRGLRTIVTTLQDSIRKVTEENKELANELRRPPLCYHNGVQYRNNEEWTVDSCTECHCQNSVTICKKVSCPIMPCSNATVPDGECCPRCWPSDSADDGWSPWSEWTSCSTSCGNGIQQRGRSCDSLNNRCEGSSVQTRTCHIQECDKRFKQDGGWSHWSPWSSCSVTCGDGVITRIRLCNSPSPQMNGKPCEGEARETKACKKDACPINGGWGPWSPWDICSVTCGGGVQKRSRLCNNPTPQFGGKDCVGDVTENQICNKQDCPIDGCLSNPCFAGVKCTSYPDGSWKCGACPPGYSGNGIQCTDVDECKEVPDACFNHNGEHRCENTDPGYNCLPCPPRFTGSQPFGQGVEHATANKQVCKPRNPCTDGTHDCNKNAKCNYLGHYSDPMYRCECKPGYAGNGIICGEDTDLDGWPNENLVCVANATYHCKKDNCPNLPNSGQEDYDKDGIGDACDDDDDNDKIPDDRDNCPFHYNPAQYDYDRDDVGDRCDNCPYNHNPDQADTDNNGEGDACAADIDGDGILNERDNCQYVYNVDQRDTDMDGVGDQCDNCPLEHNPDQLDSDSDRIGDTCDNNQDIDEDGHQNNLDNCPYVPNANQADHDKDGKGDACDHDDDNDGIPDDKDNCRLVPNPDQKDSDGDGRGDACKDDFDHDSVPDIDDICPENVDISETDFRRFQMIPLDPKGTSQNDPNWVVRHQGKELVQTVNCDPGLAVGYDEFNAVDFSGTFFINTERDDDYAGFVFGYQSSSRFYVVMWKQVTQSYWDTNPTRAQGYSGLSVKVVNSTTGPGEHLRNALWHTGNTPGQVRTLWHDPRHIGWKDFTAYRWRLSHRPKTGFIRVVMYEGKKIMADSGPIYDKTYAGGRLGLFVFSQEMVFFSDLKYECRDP

## complement C3 (natural protein)
  Kd: 127 nM

## complement C5 (natural protein)
  Kd: 47.2 nM
